Columns and labels:
BPLER cells [1] = experiment: Cell viability after drug treatment (CellTiterGlo / Trypan-Blue); assay type: cell-based, human; conditions: 24 hr; for sensitivity of BPLER relative to HMLER cells (viability): increasing doses; for relative viability of BPLER and HMLER cells: CellTiterGlo (FIG. 14)
BPE cells = conditions: at the indicated dose
[2] = system: BPE, HMLER and BPLER cells; experiment: Cell cycle distribution (propidium iodide DNA staining); conditions: BPE, HMLER and BPLER, 24 hours
BPLER cells [3] = experiment: Apoptosis (Annexin V/PI flow cytometry, caspase 3 and PARP cleavage immunoblot); assay type: cell-based, human; conditions: 24 hours
Procedure: BPLER were used as control. […] The percentage of double-positive cells is indicated.
To further define factors underlying such properties of BPLER cells, we first determined the molecular mechanism by which proteasome inhibition affects the growth of these cells.
Immunoblot was performed as described^41. Primary antibodies were as follows: cleaved Caspase 3 (Cell Signaling, rabbit polyclonal, 1:1000), PARP1 (Santa Cruz, rabbit polyclonal, 1:500), MCL1 (Cell Signaling, Rabbit polyclonal, 1:1000), Bim (Santa Cruz, rabbit polyclonal, 1:500), Bik (Cell Signaling, rabbit polyclonal, 1:1000), Puma (Cell Signaling, rabbit polyclonal, 1:1000), Noxa (Calbiochem, mouse monoclonal, 1:500), Bid (Santa Cruz, rabbit polyclonal, 1:500), Bad (Santa Cruz, rabbit polyclonal, 1:500). Antibodies were diluted in 5% milk in TBS-T and incubated O.N. at 4° C. Secondary mouse and rabbit HRP-conjugated antibodies were from Amersham. Protein signal was detected using the ECL Plus kit (Amersham). For flow cytometry, cells were stained as previously described^33, using the following fluorescent-conjugated antibodies: CD44 (BD Biosciences), CD24 (BD Biosciences), CD326 (ESA, Biolegend), Annexin V (Invitrogen). For immunofluorescence microscopy, cells were fixed in 2% PFA for 10 min, permeabilized with 1% Triton X in PBS for 5 min, and incubated with primary antibodies in 0.5% Triton X, 1% FBS in PBS for 30 min at RT. Antibodies were: CK18 (Santa Cruz, mouse monoclonal, 1:100) and CK14 (Millipore, mouse monoclonal, 1:100). After washing the cells were stained sequentially with AlexaFluor647-conjugated secondary antibody (Invitrogen, 1:200) and DAPI (Sigma, 1:5000). For immunohistochemistry, BPLER tumor sections were prepared from paraffin-embedded tissues, deparaffinized and treated with 10% citrate buffer for 15 min. Staining was performed using a BIOGENEX IHC DAB kit (Biogenex) following the manufacturer's protocol. Primary antibodies were: CK14 (Millipore, mouse monoclonal, 1:100), CK5 (Millipore, mouse monoclonal, 1:100), HH3 (Cell Signaling, rabbit polyclonal, 1:100), ER (Abcam, mouse monoclonal, 1:100), Vimentin (Invitrogen, mouse monoclonal 1:100), Ki67 (Millipore, mouse monoclonal, 1:100).

HMLER cells = experiment: Genome-wide siRNA lethality screen (primary screen), CellTiterGlo viability; assay type: cell-based, human; conditions: for MAD_HMLER / Fold_HMLER: primary screen, HMLER cells; for MAD_HMLER: MAD score; for MAD HMLER: MAD score of viability in HMLER cells; for Fold HMLER: fold viability in HMLER cells
BPLER cells [4] = experiment: as above; assay type: cell-based, human; conditions: for MAD BPLER / Fold BPLER: siRNA pool against the gene; for MAD BPLER: MAD score of viability in BPLER cells; for Fold BPLER: fold viability in BPLER cells
BPLER cells [5] = experiment: Secondary (cherry-pick) screen with the 4 individual siRNAs of each pool; conditions: for Cherry_Score: secondary cherry-pick screen, 4 individual siRNAs of each pool
[6] = siRNA pool against the gene, fold viability
[7] = ratio of Fold_BPLER to Fold_HMLER
[8] = ratio of fold viability BPLER/HMLER
[9] = secondary screen with the 4 individual siRNAs of each pool

O=C(O)C(=O)CBr [BRPA, 3-bromo-pyruvic acid]
sensitivity of BPLER relative to HMLER cells (viability) (BPLER cells [1]): more sensitive

CC(=O)N(O)CCCCCNC(=O)CCC(=O)N(O)CCCCCNC(=O)CCC(=O)N(O)CCCCCN [Deferoxamine]
relative viability of BPLER and HMLER cells (BPLER cells [1]): not active

COc1ccc([C@@H]2CC(=O)c3c(O)cc(O)cc3O2)cc1O [Hesperetin]
relative viability of BPLER and HMLER cells (BPLER cells [1]): not active

NC(N)=NOCC[C@H](N)C(=O)O [L-cavananine]
relative viability of BPLER and HMLER cells (BPLER cells [1]): not active

COc1ccc2cc(CCC(C)=O)ccc2c1 [Nabumetone]
relative viability of BPLER and HMLER cells (BPLER cells [1]): not active

O=C(CCCCCCC(=O)Nc1ccccc1)NO [Vorinostat, N′-hydroxy-N-phenyl-octanediamide]
BPE viability (BPE cells): no effect on BPE viability | sensitivity of BPLER relative to HMLER cells (viability) (BPLER cells [1]): selectively lethal for BPLER compared to HMLER

COc1cccc2c1C(=O)c1c(O)c3c(c(O)c1C2=O)C[C@@](O)(C(=O)CO)C[C@@H]3O[C@H]1C[C@H](N)[C@H](O)[C@H](C)O1 [doxorubicin]
sensitivity of BPLER relative to HMLER cells (viability) (BPLER cells [1]): responded similarly

COC(=O)Nc1nc2ccc(C(=O)c3cccs3)cc2[nH]1 [nocodazole]
mitotic arrest [2]: underwent mitotic arrest | activation of apoptosis by mitotic arrest (BPLER cells [3]): sufficient to activate apoptosis in BPLER cells

B1: TMED3 (nucleic acid, listed as Homo sapiens)
DNA: ATCCCCTTACATCCTCCTAGGACCCGGTCGGTAGTCGTCGCCCCAGCCCGCCGGGGGCGCAGCGCCCGAGCCGCGGCCCTCGAGACGGGACCGAGAGCATCATGGGCAGCACTGTCCCGCGCTCCGCCTCCGTGCTGCTTCTGCTGCTGCTCCTGCGCCGGGCCGAGCAGCCCTGCGGGGCCGAGCTCACCTTCGAGCTGCCGGACAACGCCAAGCAGTGCTTCCACGAGGAGGTGGAGCAGGGCGTGAAGTTCTCCCTGGATTACCAGGTCATCACTGGAGGCCACTACGATGTTGACTGCTATGTAGAGGACCCCCAGGGGAACACCATCTACAGAGAAACGAAGAAGCAGTACGACAGCTTCACGTACCGGGCTGAAGTCAAGGGCGTTTATCAGTTTTGCTTCAGTAATGAGTTTTCCACCTTCTCTCACAAGACCGTCTACTTTGACTTTCAAGTGGGCGATGAGCCTCCCATTCTCCCAGACATGGGGAACAGGGTCACAGCTCTCACCCAGATGGAGTCCGCCTGCGTGACCATCCATGAGGCTCTGAAAACGGTGATTGACTCCCAGACGCATTACCGGCTGCGGGAGGCCCAGGACCGGGCCCGAGCGGAAGACCTTAATAGCCGAGTCTCTTACTGGTCTGTTGGCGAGACGATTGCCCTGTTCGTGGTCAGCTTCAGTCAGGTGCTACTGTTGAAAAGCTTCTTCACAGAAAAACGACCCATCAGCAGGGCAGTCCACTCCTAGCCCCGGCATCCTGCTCTAGGGCCCCTCATGCCCCAGGCTGGAGCAGCTCTCCTAGGTCACAGCCTGCTGGGCTGGGTCGCGTAGCCCAGGGTGGAGGCAGAACGATGCTGCTGTGGTAGCCCTTTGCCTTTCATGCCCATGCTTGATTCTTGCACCTCAGCAGCTGAAGGTCTCAGAGACCAGTAATCAGAAGGCATCCGACTGCATTAAGTGTGCAGCGCTGAAAAGACATTTACAACTAGGCCAGGGATTAGCCACTGTGGGAGGGTGGACAGGCAATGGTTCAGTGGCCTGGCTGTTGGCAGGAACTCCAAGTGCCCAGGCCTCTTGGGCAGCTTAGGGCCCTGCCTCTGTTTCATGATGCATGGGTCATTTGTCTTGGGTGTCCTATCCCATATGGAGAAGAAAGGGGCTCTAAGTTCTGGCTCTTCTTTCTTTGGGGTTCTCTGTACCTGAGGAAACCAGGCCCTGGGTGACTTTGCAGATCTGCTCACCCTCGGTGAGCAACAGTGTCAGCCATGCAAGCAGGACAGAATGGTGACTGGGTGCCCTTGGTGAGCTGTGTATTTCCTAGGAGGTAGAAAACTGTGGGAAACTGTGGCTAATAAAAACTAAGTGTGAGCGTCCTGGAGAAAAAAAAAAAAAAAAAAAAAAAAAAAAAAAAAAAAAAAAAAAAAAAA
MAD_HMLER (HMLER cells; siRNA pool against the gene): −1.28 | Fold_HMLER (HMLER cells; [6]): 0.80 | MAD HMLER (HMLER cells; siRNA pool against the gene): −1.28 | Fold HMLER (HMLER cells; siRNA pool against the gene): 0.80 | Ratio BPLER/HMLER (BPLER cells [4]; [7]): 0.68 | Ratio BPLER/HMLER (BPLER cells [4]; [8]): 0.68 | MAD BPLER (BPLER cells [4]): −2.93 | Fold BPLER (BPLER cells [4]): 0.537 | Cherry_Score (BPLER cells [5]): 2 | Cherry Score (BPLER cells [5]; [9]): 2

B2: NM_194324 (nucleic acid, listed as Homo sapiens)
DNA: AGCACTGCAGGGCTCTGGGCGGGAAGGCTAACCTGGTGCGGAGCCAGCCTGGGTCTCAGCCCCGCGTACGGCCTTTCACGAGTCTTCAAGCCTTCAGGCTTTCTTCTAGTCAAGATGAGTGATAAACCAGACTTGTCGGAAGTGGAGAAGTTTGACAGGTCAAAACTGAAGAAAACTAATACTGAAGAAAAAAATACTCTTCCCTCAAAGGAAACTATCCAGCAGGAGAAAGAGTGTGTTCAAACATCATAAAATGGGGATCTCCTCCAAAGAGCAGATTTCAGCATTGCCTGACAGTCTTGGTTTTAGGCTTGTTTTTTTGTAAACCTGTGTGTTTGTAGAGATTTCAGACATCTTCTGATTTCTTCTCACCTATATTCCCTGGTTAAGAGGTCAGGGGTAGTGAATGTTTCCTTAAGTTCCTTTTTAAACTTCCCATTGGTATGTAAATTCCAAATGGCAGATGCTGTCAATAACCTTGCCATGGATGACCTTTGTGTAGGTAGTCCTTGCACCTCATGCAGGATAAGCCAATTTTAACTTTCTACAATGGGTGCCTCAATAGTTTCATAATCTTCATGAAGTTGCATCCTTTGGCAGCTTCTTACAGTTTATTTTCACTTCCAATGTAGCAATAAAATAATAAATATAATCGTTGTTGTCTGAAAAAAAAAAAAAAAAAA
Fold_HMLER (HMLER cells; siRNA pool): 0.87 | Ratio (BPLER cells [4]; R, BPLER versus HMLER, primary screen): 0.74 | Cherry Score (BPLER cells [5]; validation screen with individual siRNAs of each pool): 1

B3: TMEM14B (nucleic acid, listed as Homo sapiens)
DNA: TTTCTCCCCGCCCTGCCGCGGCCCCGGGGCGCAGCGCGCACGCAATCGCGTTTCCGGAGAGACCTGGCTGCTGTGTCCCGCGGCTTGCGCTCCGTAGTGGACTCCGCGGGCCTTCGGCAGATGCAGGCCTGGGGTAGTCTCCTTTCTGGACTGAGAAGAGAAGAATGGAGAAGCCCCTCTTCCCATTAGTGCCTTTGCATTGGTTTGGCTTTGGCTACACAGCACTGGTTGTTTCTGGTGGGATCGTTGGCTATGTAAAAACAGGCAGCGTGCCGTCCCTGGCTGCAGGGCTGCTCTTCGGCAGTCTAGCCGGCCTGGGTGCTTACCAGCTGTATCAGGATCCAAGGAACGTTTGGGGTTTCCTAGCCGCTACATCTGTTACTTTTGTTGGTGTTATGGGAATGAGATCCTACTACTATGGAAAATTCATGCCTGTAGGTTTAATTGCAGGTGCCAGTTTGCTGATGGCCGCCAAAGTTGGAGTTCGTATGTTGATGACATCTGATTAGCAGAAGTCATGTTCCAGCTTGGACTCATGAAGGATTAAAAATCTGCATCTTCCACTATTTTCAATGTATTAAGAGAAATAAGTGCAGCATTTTTGCATCTGACATTTTACCTAAAAAAAAAAAGACACCAAATTTGGCGGAGGGGTGGAAAATCAGTTGTTACCATTATAACCCTACAGAGGTGGTGAGCATGTAACATGAGCTTATTGAGACCATCATAGAGATCGATTCTTGTATATTGATTTTATCTCTTTCTGTATCTATAGGTAAATCTCAAGGGTAAAATGTTAGGTGTTGACATTGAGAACCCTGAAACCCCATTCCCTGCTCAGAGGAACAGTGTGAAAAAAAATCTCTTGAGAGATTTAGAATATCTTTTCTTTTGCTCATCTTAGACCACAGACTGACTTTGAAATTATGTTAAGTGAAATATCAATGAAAATAAAGTTTACTATAAATAATAAAAAAAAAAAAAAAAAA
MAD_HMLER (HMLER cells; siRNA pool against the gene): −0.56 | Fold_HMLER (HMLER cells; [6]): 0.90 | MAD HMLER (HMLER cells; siRNA pool against the gene): −0.56 | Fold HMLER (HMLER cells; siRNA pool against the gene): 0.90 | Ratio BPLER/HMLER (BPLER cells [4]; [7]): 0.71 | Ratio BPLER/HMLER (BPLER cells [4]; [8]): 0.71 | MAD BPLER (BPLER cells [4]): −1.99 | Fold BPLER (BPLER cells [4]): 0.636 | Cherry_Score (BPLER cells [5]): 1 | Cherry Score (BPLER cells [5]; [9]): 1

Reference: patent US9689040B2, “Selective inhibitors of tumor-initiating cells” (Children's Medical Center Corporation, priority 2011, dated 2017)
